From patent US20160046707A1 (EISAI R AND D MANAGEMENT, published 2016)

Key:
Test in all cases: ELISA, plate-bound chemokine (1 ug/ml), antibody 10 ug/ml, OD450
[1] = molecular target: T1, recombinant human CCL11 (human, UniProt P51671 24-97)
T1 construct: also called Eotaxin
Method: (§1) The wells of a 96-well plate were coated with 1 μg/ml of the recombinant human chemokines in PBS (−). After overnight incubation at 4° C., the wells were blocked with 1× Block-Ace (Dainippon Sumitomo Pharma, UK-B80) for 1 hour at room temperature. After washing twice with 0.02% Tween 20/PBS (−), we added 50 μl of 10 μg/ml purified 36F7C10, chimeric 36F710, HC2/LK3, or HC2/LC3 in 0.02% Tween 20/PBS (−) to each well. The wells were incubated for 1 hour at room temperature and washed three times as described in Example 3. […] After washing five times, a TMBZ (3,3′,5,5′-tetramethylbenzidine) solution (1%, in N,N-Dimethylformamide) was added to the wells and incubated for 15-30 minutes. The reaction was stopped by adding an equal volume of a 2 M H₂SO₄ stopping solution, and the optical density was read at 450 nm by ARVO (PerkinElmer).

[2] = molecular target: T2, recombinant human CXCL9 (human, UniProt Q07325 23-125)
T2 construct: also called MIG
T2 sequence (looked up): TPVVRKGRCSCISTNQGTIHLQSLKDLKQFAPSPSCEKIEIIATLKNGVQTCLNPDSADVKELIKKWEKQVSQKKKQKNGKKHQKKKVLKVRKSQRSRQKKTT
Method: as §1

[3] = molecular target: T3, recombinant human CCL28 (human, UniProt Q9NRJ3 23-127, limits assumed)
T3 sequence (looked up): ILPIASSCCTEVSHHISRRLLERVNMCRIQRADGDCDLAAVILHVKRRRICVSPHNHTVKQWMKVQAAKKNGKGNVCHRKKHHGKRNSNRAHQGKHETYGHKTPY
Method: as §1

[4] = molecular target: T4, recombinant human CCL1 (human, UniProt P22362 24-96, limits assumed)
T4 sequence (looked up): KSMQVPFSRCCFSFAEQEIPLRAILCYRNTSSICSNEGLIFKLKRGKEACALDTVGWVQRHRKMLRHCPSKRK
Method: as §1

[5] = molecular target: T5, recombinant human CCL19 (human, UniProt Q99731 22-98)
T5 construct: also called MIP-3b
T5 sequence (looked up): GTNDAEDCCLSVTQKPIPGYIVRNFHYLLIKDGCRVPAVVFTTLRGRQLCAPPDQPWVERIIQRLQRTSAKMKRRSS
Method: as §1

[6] = molecular target: T6, recombinant human CCL22 (human, UniProt O00626 25-93)
T6 construct: also called MDC
T6 sequence (looked up): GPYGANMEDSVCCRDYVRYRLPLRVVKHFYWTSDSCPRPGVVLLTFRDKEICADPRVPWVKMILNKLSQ
Method: as §1

[7] = molecular target: T7, recombinant human CXCL16 (human, UniProt Q9H2A7 30-118, limits assumed)
T7 sequence (looked up): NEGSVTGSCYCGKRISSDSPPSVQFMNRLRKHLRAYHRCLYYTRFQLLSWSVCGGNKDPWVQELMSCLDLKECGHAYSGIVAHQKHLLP
Method: as §1

[8] = molecular target: T8, recombinant human CX3CL1 (Extracellular Domain) (human, UniProt P78423 25-341)
T8 construct: extracellular domain; also called FKN
T8 sequence (looked up): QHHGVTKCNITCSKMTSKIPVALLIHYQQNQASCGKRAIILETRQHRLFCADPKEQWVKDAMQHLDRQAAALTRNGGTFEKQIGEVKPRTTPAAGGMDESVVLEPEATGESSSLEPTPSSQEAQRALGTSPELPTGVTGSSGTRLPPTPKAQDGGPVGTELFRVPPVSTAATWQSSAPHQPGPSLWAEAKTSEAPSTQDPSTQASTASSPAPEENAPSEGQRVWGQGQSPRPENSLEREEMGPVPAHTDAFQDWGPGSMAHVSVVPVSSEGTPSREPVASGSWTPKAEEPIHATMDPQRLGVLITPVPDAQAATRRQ
Method: as §1

[9] = molecular target: T9, recombinant human CXCL10 (human, UniProt P02778 22-98)
T9 construct: also called IP-10
T9 sequence (looked up): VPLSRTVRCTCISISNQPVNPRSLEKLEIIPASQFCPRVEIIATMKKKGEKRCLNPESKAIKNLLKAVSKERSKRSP
Method: as §1

[10] = molecular target: T10, recombinant human CCL4 (human, UniProt P13236 24-92)
T10 construct: also called MIP-1β
T10 sequence (looked up): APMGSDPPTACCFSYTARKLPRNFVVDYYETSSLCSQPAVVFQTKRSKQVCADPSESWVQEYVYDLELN
Method: as §1

Measured: binding result

T1 sequence (P51671 24-97 limits assumed): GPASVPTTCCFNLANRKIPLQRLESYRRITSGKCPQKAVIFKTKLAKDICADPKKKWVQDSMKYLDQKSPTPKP

B1: humanized anti-human CCL20 antibody 36LK3/36HC2 (antibody, human IgG1, kappa, V domains shown)
VH: QVQLVQSGAEVKKPGASVKVSCKASGYTFTNYWMHWVRQAPGQGLEWMGVIDPSDSYTTYAQKFQGRVTMTVDTSTSTVYMELSSLRSEDTAVYYCARGNYGVDYAMDYWGQGTLVTVSS
VL: DIQMTQSPSSLSASVGDRVTITCGASENIYGALNWYQRKPGKAPKLLIYGATNLADGVPSRFSGSGSGRDYTLTISSLQPEDFATYYCQNVLITPYTFGQGTKLEIKR
notes: expressed in HEK293 cells; also called HC2/LK3; HC2LK3
no binding (tested: 10 ug/ml): all assays above

B2: humanized anti-human CCL20 antibody 36LC3/36HC2 (antibody, human IgG1, kappa, V domains shown)
VH: QVQLVQSGAEVKKPGASVKVSCKASGYTFTNYWMHWVRQAPGQGLEWMGVIDPSDSYTTYAQKFQGRVTMTVDTSTSTVYMELSSLRSEDTAVYYCARGNYGVDYAMDYWGQGTLVTVSS
VL: DIQMTQSPSSLSASVGDRVTITCRASENIYGALNWYQQKPGKAPKLLIYGATNLADGVPSRFSGSGSGRQYSLTISSLQPEDFATYYCQNVLITPYTFGGGTKLEIKR
notes: expressed in HEK293 cells; also called HC2/LC3; HC2LC3
no binding (tested: 10 ug/ml): all assays above

B3: mouse anti-human CCL20 monoclonal antibody 36F7C10 (antibody, V domains shown)
VH: QVQLQQPGAELVKPGASVKMSCKASGYTFTNYWMHWVKQRPGQGLEWIGVIDPSDSYTTYNQKFKGKATLTVDTSSSTAYMQLSSLTSEDSAVYYCTRGNYGVDYAMDYWGQGTSVTVSS
VL: DIQMTQSPASLSASVGETVTITCGASENIYGALNWYQRKQGKSPQLLIYGATNLADGMSSRFSGSGSGRQYSLKISSLHPDDVATYYCQNVLITPYTFGGGTKLEIK
notes: Mouse hybridoma antibody; also called MouseMAb; parental mouse clone 36F7C10
no binding (tested: 10 ug/ml): all assays above

B4: chimeric 36F7C10 antibody (36F7C10-hFc) (antibody, V domains shown)
VH: QVQLQQPGAELVKPGASVKMSCKASGYTFTNYWMHWVKQRPGQGLEWIGVIDPSDSYTTYNQKFKGKATLTVDTSSSTAYMQLSSLTSEDSAVYYCTRGNYGVDYAMDYWGQGTSVTVSS
VL: DIQMTQSPASLSASVGETVTITCGASENIYGALNWYQRKQGKSPQLLIYGATNLADGMSSRFSGSGSGRQYSLKISSLHPDDVATYYCQNVLITPYTFGGGTKLEIK
notes: also called chimeric 36F710; Chimeric MAb
no binding (tested: 10 ug/ml): all assays above
